Reference: publication PMC12723722, “Phosphorylation event changes the RNA binding mode of EZH2 disordered segment”

Assays:
[1] = target: EZH2 loop WT (UniProt Q15910 340-435); assay: EMSA; small but clear shift; EMSA: LightShift RNA EMSA kit protocol, 1-2 nM refolded RNA, 30 min room temperature, 4 or 6% native PAGE, 0.5x TBE; MST: Monolith NT.115, standard treated capillaries, 40% MST power; binding buffer, salt and pH not given in the material; conditions: protein: recombinant; tags: His tag implied (pET22b, HisTrap); label: 3' biotin (EMSA); Cy5 aminoallyl-UTP for labelled RNA; hairpin (predicted)
[2] = target: Thymosin beta 4 (Tβ4) (UniProt P62328 2-44, not fully specified); assay: EMSA; EMSA: LightShift RNA EMSA kit protocol, 1-2 nM refolded RNA, 30 min room temperature, 4 or 6% native PAGE, 0.5x TBE; MST: Monolith NT.115, standard treated capillaries, 40% MST power; binding buffer, salt and pH not given in the material; conditions: protein: recombinant; label: 3' biotin (EMSA); Cy5 aminoallyl-UTP for labelled RNA; hairpin (predicted)
Thymosin beta 4 (Tβ4), sequence (P62328 2-44): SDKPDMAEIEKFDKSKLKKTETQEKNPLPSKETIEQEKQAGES

EZH2 loop WT, sequence (Q15910 340-435): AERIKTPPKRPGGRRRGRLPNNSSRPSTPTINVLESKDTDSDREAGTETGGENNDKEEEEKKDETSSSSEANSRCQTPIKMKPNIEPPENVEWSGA

B1: R50 (structured_RNA)
RNA: AAGAAUGGCCUCGCGGAGGCAUGCGUCAUGCUAGCGUGCGGGGUACUCUU
B1: binds [1]; no binding [2].
